Results taken from the Immune Epitope Database (IEDB).
One block for each sequence: values may come before it.

How the values were obtained:
HLA-C*05:01 = test: IEDB peptide-MHC binding, purified MHC/direct/fluorescence; filed as Kd, often an IC50 or EC50 that approximates it; ≥ and ≤ were set here for values at or beyond the usual limits of such assays
HLA-C*03:03 = test: as above; details: source organism: Mycobacterium tuberculosis H37Rv
HLA-C*14:02 = test: as above; details: source organism: Mycobacterium tuberculosis H37Rv
HLA-C*12:03 = test: as above; details: source organism: Leishmania major strain Friedlin
HLA-A*31:01 [1] = test: as above
HLA-A*69:01 [2] = test: as above
HLA-A*03:01 = test: as above
HLA-B*27:05 = test: as above
HLA-B*08:01 = test: as above
HLA-B*15:01 [3] = test: as above
HLA-A*01:01 = test: as above
HLA-B*58:01 [4] = test: as above
HLA-A*11:01 = test: as above
HLA-A*30:01 = test: as above
HLA-A*26:01 [5] = test: as above
HLA-A*02:01 = test: as above
HLA-B*40:01 = test: as above
HLA-B*07:02 = test: as above
HLA-B*44:02 = test: as above
HLA-B*57:01 [6] = test: IEDB peptide-MHC binding, purified MHC/competitive/radioactivity; filed as Kd, often an IC50 or EC50 that approximates it; ≥ and ≤ were set here for values at or beyond the usual limits of such assays
HLA-B*58:01 [7] = test: as above
HLA-B*53:01 = test: as above; details: source organism: Dengue virus 3 Martinique/1243/1999
HLA-A*31:01 [8] = test: IEDB peptide-MHC binding, purified MHC/competitive/fluorescence; filed as Kd, often an IC50 or EC50 that approximates it; ≥ and ≤ were set here for values at or beyond the usual limits of such assays; details: source organism: Entamoeba dispar SAW760
HLA-B*27:03 = test: as above; details: source organism: Entamoeba dispar SAW760
HLA-A*68:02 = test: as above; details: source organism: Entamoeba dispar SAW760
HLA-B*57:01 [9] = test: as above; details: source organism: Entamoeba dispar SAW760
HLA-A*69:01 [10] = test: as above; details: source organism: Entamoeba dispar SAW760
HLA-B*46:01 = test: as above; details: source organism: Entamoeba dispar SAW760
HLA-B*18:01 = test: as above; details: source organism: Entamoeba dispar SAW760
HLA-A*02:03 = test: as above; details: source organism: Entamoeba dispar SAW760
HLA-B*15:01 [11] = test: as above; details: source organism: Entamoeba dispar SAW760
HLA-B*39:01 = test: as above; details: source organism: Entamoeba dispar SAW760
HLA-B*15:17 = test: as above; details: source organism: Entamoeba dispar SAW760
HLA-A*24:03 [12] = test: as above; details: source organism: Entamoeba dispar SAW760
HLA-A*26:01 [13] = test: as above; details: source organism: Entamoeba dispar SAW760
HLA-A*02:12 = test: as above; details: source organism: Entamoeba dispar SAW760
HLA-A*23:01 = test: as above
HLA-A*02:19 = test: as above; details: source organism: Entamoeba dispar SAW760
HLA-B*51:01 = test: as above; details: source organism: Entamoeba dispar SAW760
HLA-A*24:03 [14] = test: IEDB peptide-MHC binding, purified MHC/direct/fluorescence; filed as Kd, often an IC50 or EC50 that approximates it; ≥ and ≤ were set here for values at or beyond the usual limits of such assays
HLA-A*32:01 = test: IEDB peptide-MHC binding, purified MHC/competitive/radioactivity; filed as Kd, often an IC50 or EC50 that approximates it; ≥ and ≤ were set here for values at or beyond the usual limits of such assays; details: source organism: Dengue virus 1 Brazil/97-11/1997
HLA-B*35:01 = test: IEDB peptide-MHC binding, purified MHC/direct/fluorescence; filed as Kd, often an IC50 or EC50 that approximates it; ≥ and ≤ were set here for values at or beyond the usual limits of such assays
[15] = source organism: Vibrio parahaemolyticus
[16] = source organism: Dengue virus 4 Philippines/H241/1956
[17] = source organism: Dengue virus 3 Martinique/1243/1999
[18] = source organism: Escherichia coli
[19] = source organism: Dengue virus 2 Jamaica/1409/1983
[20] = source organism: Dengue virus 1 Brazil/97-11/1997
[21] = source organism: Coxiella burnetii
[22] = source organism: Salmonella enterica subsp. enterica serovar Typhi
[23] = source organism: Salmonella enterica

Sequence: AAAANTTAL
Kd (HLA-C*05:01; source organism: Mycobacterium tuberculosis H37Rv): 1.68 µM
Kd (HLA-C*03:03): ≤ 0.001 µM
Kd (HLA-C*14:02): 0.607 µM

Sequence: AAVDNAVVV
Kd (HLA-C*12:03): ≤ 0.001 µM

Sequence: DQFSIPIRY
Kd (HLA-A*31:01 [1]; [15]): ≥ 20 µM
Kd (HLA-A*69:01 [2]; [15]): ≥ 20 µM
Kd (HLA-A*03:01; [15]): ≥ 20 µM
Kd (HLA-B*27:05; [15]): ≥ 20 µM
Kd (HLA-B*08:01; [15]): ≥ 20 µM
Kd (HLA-B*15:01 [3]; [15]): 0.579 µM
Kd (HLA-A*01:01; [15]): ≥ 20 µM
Kd (HLA-B*58:01 [4]; [15]): ≥ 20 µM
Kd (HLA-A*11:01; [15]): ≥ 20 µM
Kd (HLA-A*30:01; [15]): 8.36 µM
Kd (HLA-A*26:01 [5]; [15]): ≥ 20 µM
Kd (HLA-A*02:01; [15]): ≥ 20 µM
Kd (HLA-B*40:01; [15]): ≥ 20 µM
Kd (HLA-B*07:02; [15]): ≥ 20 µM
Kd (HLA-B*44:02; [15]): ≥ 20 µM

Sequence: EASISNITTA
Kd (HLA-B*57:01 [6]; [16]): ≥ 23.5 µM
Kd (HLA-B*58:01 [7]; [16]): 1.63 µM

Sequence: LATAIAGAW
Kd (HLA-B*57:01 [6]; [17]): 0.00719 µM
Kd (HLA-B*58:01 [7]; [17]): 0.0056 µM
Kd (HLA-B*53:01): 0.0199 µM

Sequence: LLDEPTNNL
Kd (HLA-A*69:01 [2]; source organism: Burkholderia mallei): 0.0883 µM
Kd (HLA-C*05:01; source organism: Bifidobacterium longum DJO10A): 0.007 µM

Sequence: LMTHTWHAK
Kd (HLA-A*31:01 [8]): 0.119 µM
Kd (HLA-B*27:03): ≥ 20 µM
Kd (HLA-A*68:02): ≥ 20 µM
Kd (HLA-B*57:01 [9]): ≥ 20 µM
Kd (HLA-A*69:01 [10]): ≥ 20 µM
Kd (HLA-B*46:01): ≥ 20 µM
Kd (HLA-B*18:01): ≥ 20 µM
Kd (HLA-A*02:03): ≥ 20 µM
Kd (HLA-B*15:01 [11]): ≥ 20 µM
Kd (HLA-B*39:01): ≥ 20 µM
Kd (HLA-B*15:17): ≥ 20 µM
Kd (HLA-A*24:03 [12]): ≥ 20 µM
Kd (HLA-A*26:01 [13]): ≥ 20 µM
Kd (HLA-A*02:12): ≥ 20 µM
Kd (HLA-A*23:01; source organism: Entamoeba dispar SAW760): ≥ 20 µM
Kd (HLA-A*02:19): ≥ 20 µM
Kd (HLA-B*51:01): ≥ 20 µM

Sequence: MQLAKEHNF
Kd (HLA-A*23:01; source organism: Francisella tularensis subsp. tularensis FSC198): 0.0291 µM

Kd (HLA-A*31:01 [1]; [18]): ≥ 20 µM
Kd (HLA-A*69:01 [2]; [18]): ≥ 20 µM
Kd (HLA-A*03:01; [18]): ≥ 20 µM
Kd (HLA-B*27:05; [18]): ≥ 20 µM
Kd (HLA-B*08:01; [18]): ≥ 20 µM
Kd (HLA-B*15:01 [3]; [18]): ≥ 20 µM
Kd (HLA-A*01:01; [18]): ≥ 20 µM
Kd (HLA-B*58:01 [4]; [18]): ≥ 20 µM
Kd (HLA-A*11:01; [18]): ≥ 20 µM
Kd (HLA-A*30:01; [18]): ≥ 20 µM
Kd (HLA-A*24:03 [14]; [18]): ≥ 20 µM
Kd (HLA-A*26:01 [5]; [18]): ≥ 20 µM
Kd (HLA-A*02:01; [18]): ≥ 20 µM
Kd (HLA-B*40:01; [18]): ≥ 20 µM
Sequence: NMERKLNLS

Sequence: RSWNSGHEW
Kd (HLA-B*57:01 [6]; [19]): 0.00205 µM
Kd (HLA-B*58:01 [7]; [19]): 0.00105 µM

Sequence: RSWNSGYDW
Kd (HLA-B*57:01 [6]; [20]): ≤ 0.001 µM
Kd (HLA-A*32:01): 0.0543 µM
Kd (HLA-B*58:01 [7]; [20]): 0.0135 µM

Sequence: VMKRNFIDF
Kd (HLA-B*35:01; [21]): 1.13 µM
Kd (HLA-A*31:01 [1]; [21]): ≥ 20 µM
Kd (HLA-A*69:01 [2]; [21]): ≥ 20 µM
Kd (HLA-A*03:01; [21]): ≥ 20 µM
Kd (HLA-B*27:05; [21]): ≥ 20 µM
Kd (HLA-B*08:01; [21]): 2.25 µM
Kd (HLA-B*15:01 [3]; [21]): 0.0844 µM
Kd (HLA-A*01:01; [21]): ≥ 20 µM
Kd (HLA-B*58:01 [4]; [21]): ≥ 20 µM
Kd (HLA-A*30:01; [21]): 3.63 µM
Kd (HLA-A*24:03 [14]; [21]): 4.91 µM
Kd (HLA-A*26:01 [5]; [21]): ≥ 20 µM
Kd (HLA-A*02:01; [21]): ≥ 20 µM
Kd (HLA-B*40:01; [21]): ≥ 20 µM
Kd (HLA-B*44:02; [21]): ≥ 20 µM

Sequence: VPQTDAGVT
Kd (HLA-B*35:01; [22]): 0.888 µM
Kd (HLA-A*31:01 [1]; [22]): 0.592 µM
Kd (HLA-A*69:01 [2]; [23]): ≥ 20 µM
Kd (HLA-A*03:01; [23]): ≥ 20 µM
Kd (HLA-B*27:05; [23]): ≥ 20 µM
Kd (HLA-B*08:01; [23]): ≥ 20 µM
Kd (HLA-B*15:01 [3]; [23]): ≥ 20 µM
Kd (HLA-A*01:01; [23]): ≥ 20 µM
Kd (HLA-B*58:01 [4]; [22]): ≥ 10 µM
Kd (HLA-A*11:01; [22]): 2.9 µM
Kd (HLA-A*30:01; [22]): 4.4 µM
Kd (HLA-A*24:03 [14]; [22]): 1.27 µM
Kd (HLA-A*26:01 [5]; [23]): ≥ 20 µM
Kd (HLA-A*02:01; [23]): ≥ 20 µM
Kd (HLA-B*40:01; [23]): ≥ 20 µM
Kd (HLA-B*07:02; [22]): 1.89 µM
Kd (HLA-B*44:02; [23]): ≥ 20 µM
